Consider five sequences from the supplement of paper PMC5998384.

Data set [1] concerns HeLa Kyoto. Description: solubility in G1/S (NP-40 vs SDS abundance) (log2 ratio); higher = more soluble. Conditions: cell cycle stage: G1/S.
In data set [2] the test system is HeLa Kyoto. Description: melting temperature (median over replicates), in situ; higher = more thermally stable.
The subject of data set [3] is HeLa Kyoto. Description: solubility change mitosis vs G1/S (difference of NP-40 vs SDS log2 ratios) (log2 ratio difference); higher = more soluble in mitosis.
In data set [4] the test system is HeLa Kyoto. Description: thermal stability score vs G1/S (z-score of summed log2 fold changes over temperatures); higher = more thermally stable than in G1/S.
Where [5] appears, read: cell cycle stage: early G1 (4.5 h after nocodazole release).
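Throughout, for melting temperature (median over replicates), in situ: HeLa Kyoto cells synchronized by double thymidine or nocodazole block, proteins quantified by TMT10plex mass spectrometry, three independent biological replicates.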
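Throughout, for solubility change mitosis vs G1/S (difference of NP-40 vs SDS log2 ratios): synchronized HeLa Kyoto cells (double thymidine block for G1/S, nocodazole release for mitosis), protein amounts in NP-40 versus SDS lysates quantified by mass spectrometry, three biological replicates.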
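Throughout, for solubility in G1/S (NP-40 vs SDS abundance): HeLa Kyoto cells arrested at G1/S by double thymidine block, proteins quantified by TMT10plex mass spectrometry in mild NP-40 versus SDS extracts, three biological replicates.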
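Throughout, for thermal stability score vs G1/S (z-score of summed log2 fold changes over temperatures): synchronized HeLa Kyoto cells, proteins quantified by TMT10plex mass spectrometry, three biological replicates, mitosis taken 0.5 h after nocodazole release, G1/S directly after double thymidine block.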

Consider “MGKGDPNKPRGKMSSYAFFVQTCREEHKKKHPDSSVNFAEFSKKCSERWKTMSAKEKSKFEDMAKSDKARYDREMKNYVPPKGDKKGKKKDPNAPKRPPSAFFLFCSEHRPKIKSEHPGLSIGDTAKKLGEMWSEQSAKDKQPYEQKAAKLKEKYEKDIAAYRAKGKSEAGKKGPGRPTGSKKKNEPEDEEEEEEEEDEDEEEEDEDEE [HMGB2]”, for which the “solubility in G1/S (log2)” value in data set [1] was determined as 0.485. In addition, the melting temperature worked out at 58.1 °C in data set [2] (cell cycle stage: G1/S) and 56.7 °C in data set [2] (cell cycle stage: mitosis). Besides, in data set [3], the “solubility change mitosis (log2)” value is 0.338. Besides, the thermal stability score in data set [4] (setting [5]) is 0.292; in data set [4] (cell cycle stage: mitosis), -0.27.
For “MGKIALQLKATLENITNLRPVGEDFRWYLKMKCGNCGEISDKWQYIRLMDSVALKGGRGSASMVQKCKLCARENSIEILSSTIKPYNAEDNENFKTIVEFECRGLEPVDFQPQAGFAAEGVESGTAFSDINLQEKDWTDYDEKAQESVGIYEVTHQFVKC [C1ORF123]”, the “solubility in G1/S (log2)” value in data set [1] is -0.207. In addition, the melting temperature is 52.2 °C in data set [2] (cell cycle stage: G1/S) and 52.1 °C in data set [2] (cell cycle stage: mitosis). Moreover, the “solubility change mitosis (log2)” value in data set [3] is -0.125. Further, the figures for the thermal stability score in data set [4] (setting [5]) and in data set [4] (cell cycle stage: mitosis) were -0.132 and 0.084, respectively.
“MGKKQKNKSEDSTKDDIDLDALAAEIEGAGAAKEQEPQKSKGKKKKEKKKQDFDEDDILKELEELSLEAQGIKADRETVAVKPTENNEEEFTSKDKKKKGQKGKKQSFDDNDSEELEDKDSKSKKTAKPKVEMYSGSDDDDDFNKLPKKAKGKAQKSNKKWDGSEEDEDNSKKIKERSRINSSGESGDESDEFLQSRKGQKKNQKNKPGPNIESGNEDDDASFKIKTVAQKKAEKKERERKKRDEEKAKLRKLKEKEELETGKKDQSKQKESQRKFEEETVKSKVTVDTGVIPASEEKAETPTAAEDDNEGDKKKKDKKKKKGEKEEKEKEKKKGPSKATVKAMQEALAKLKEEEERQKREEEERIKRLEELEAKRKEEERLEQEKRERKKQKEKERKERLKKEGKLLTKSQREARARAEATLKLLQAQGVEVPSKDSLPKKRPIYEDKKRKKIPQQLESKEVSESMELCAAVEVMEQGVPEKEETPPPVEPEEEEDTEDAGLDDWEAMASDEETEKVEGNKVHIEVKENPEEEEEEEEEEEEDEESEEEEEEEGESEGSEGDEEDEKVSDEKDSGKTLDKKPSKEMSSDSEYDSDDDRTKEERAYDKAKRRIEKRRLEHSKNVNTEKLRAPIICVLGHVDTGKTKILDKLRHTHVQDGEAGGITQQIGATNVPLEAINEQTKMIKNFDRENVRIPGMLIIDTPGHESFSNLRNRGSSLCDIAILVVDIMHGLEPQTIESINLLKSKKCPFIVALNKIDRLYDWKKSPDSDVAATLKKQKKNTKDEFEERAKAIIVEFAQQGLNAALFYENKDPRTFVSLVPTSAHTGDGMGSLIYLLVELTQTMLSKRLAHCEELRAQVMEVKALPGMGTTIDVILINGRLKEGDTIIVPGVEGPIVTQIRGLLLPPPMKELRVKNQYEKHKEVEAAQGVKILGKDLEKTLAGLPLLVAYKEDEIPVLKDELIHELKQTLNAIKLEEKGVYVQASTLGSLEALLEFLKTSEVPYAGINIGPVHKKDVMKASVMLEHDPQYAVILAFDVRIERDAQEMADSLGVRIFSAEIIYHLFDAFTKYRQDYKKQKQEEFKHIAVFPCKIKILPQYIFNSRDPIVMGVTVEAGQVKQGTPMCVPSKNFVDIGIVTSIEINHKQVDVAKKGQEVCVKIEPIPGESPKMFGRHFEATDILVSKISRQSIDALKDWFRDEMQKSDWQLIVELKKVFEII [EIF5B]”: in data set [1], the “solubility in G1/S (log2)” value is -0.19. Moreover, the results for the melting temperature in data set [2] (cell cycle stage: G1/S) and in data set [2] (cell cycle stage: mitosis) were 51.5 °C and 51.6 °C, respectively. Moreover, the “solubility change mitosis (log2)” value in data set [3] stood at 0.0872. Besides, the thermal stability score in data set [4] (setting [5]) is 1.35; in data set [4] (cell cycle stage: mitosis) it was 2.42.
Regarding “MGKKSRAVPGRRPILQLSPPGPRGSTPGRDPEPEPDTEPDSTAAVPSQPAPSAATTTTTAVTAAAASDDSPSEDEQEAVQEVPRVVQNPPKPVMTTRPTAVKATGGLCLLGAYADSDDDDNDVSEKLAQSKETNGNQSTDIDSTLANFLAEIDAITAPQPAAPVGASAPPPTPPRPEPKEAATSTLSSSTSNGTDSTQTSGWQYDTQCSLAGVGIEMGDWQEVWDENTGCYYYWNTQTNEVTWELPQYLATQVQGLQHYQPSSVPGAETSFVVNTDIYSKEKTISVSSSKSGPVIAKREVKKEVNEGIQALSNSEEEKKGVAASLLAPLLPEGIKEEEERWRRKVICKEEPVSEVKETSTTVEEATTIVKPQEIMLDNIEDPSQEDLCSVVQSGESEEEEEQDTLELELVLERKKAELRALEEGDGSVSGSSPRSDISQPASQDGMRRLMSKRGKWKMFVRATSPESTSRSSSKTGRDTPENGETAIGAENSEKIDENSDKEMEVEESPEKIKVQTTPKVEEEQDLKFQIGELANTLTSKFEFLGINRQSISNFHVLLLQTETRIADWREGALNGNYLKRKLQDAAEQLKQYEINATPKGWSCHWDRDHRRYFYVNEQSGESQWEFPDGEEEEEESQAQENRDETLAKQTLKDKTGTDSNSTESSETSTGSLCKESFSGQVSSSSLMPLTPFWTLLQSNVPVLQPPLPLEMPPPPPPPPESPPPPPPPPPPAEDGEIQEVEMEDEGSEEPPAPGTEEDTPLKPSAQTTVVTSQSSVDSTISSSSSTKGIKRKATEISTAVVQRSATIGSSPVLYSQSAIATGHQAAGIGNQATGIGHQTIPVSLPAAGMGHQARGMSLQSNYLGLAAAPAIMSYAECSVPIGVTAPSLQPVQARGAVPTATIIEPPPPPPPPPPPPPPAPKMPPPEKTKKGRKDKAKKSKTKMPSLVKKWQSIQRELDEEDNSSSSEEDRESTAQKRIEEWKQQQLVSGMAERNANFEALPEDWRARLKRRKMAPNT [FNBP4]”, the “solubility in G1/S (log2)” value in data set [1] was -0.323. The melting temperature in data set [2] (cell cycle stage: G1/S) was found to be 62.5 °C; in data set [2] (cell cycle stage: mitosis), 62.1 °C. The “solubility change mitosis (log2)” value in data set [3] came to 0.168. Besides, the thermal stability score in data set [4] (setting [5]) is -4.32; in data set [4] (cell cycle stage: mitosis) it was -4.84.
On to “MGKRDRADRDKKKSRKRHYEDEEDDEEDAPGNDPQEAVPSAAGKQVDESGTKVDEYGAKDYRLQMPLKDDHTSRPLWVAPDGHIFLEAFSPVYKYAQDFLVAIAEPVCRPTHVHEYKLTAYSLYAAVSVGLQTSDITEYLRKLSKTGVPDGIMQFIKLCTVSYGKVKLVLKHNRYFVESCHPDVIQHLLQDPVIRECRLRNSEGEATELITETFTSKSAISKTAESSGGPSTSRVTDPQGKSDIPMDLFDFYEQMDKDEEEEEETQTVSFEVKQEMIEELQKRCIHLEYPLLAEYDFRNDSVNPDINIDLKPTAVLRPYQEKSLRKMFGNGRARSGVIVLPCGAGKSLVGVTAACTVRKRCLVLGNSAVSVEQWKAQFKMWSTIDDSQICRFTSDAKDKPIGCSVAISTYSMLGHTTKRSWEAERVMEWLKTQEWGLMILDEVHTIPAKMFRRVLTIVQAHCKLGLTATLVREDDKIVDLNFLIGPKLYEANWMELQNNGYIAKVQCAEVWCPMSPEFYREYVAIKTKKRILLYTMNPNKFRACQFLIKFHERRNDKIIVFADNVFALKEYAIRLNKPYIYGPTSQGERMQILQNFKHNPKINTIFISKVGDTSFDLPEANVLIQISSHGGSRRQEAQRLGRVLRAKKGMVAEEYNAFFYSLVSQDTQEMAYSTKRQRFLVDQGYSFKVITKLAGMEEEDLAFSTKEEQQQLLQKVLAATDLDAEEEVVAGEFGSRSSQASRRFGTMSSMSGADDTVYMEYHSSRSKAPSKHVHPLFKRFRK [ERCC3]”, for which, in data set [1], the “solubility in G1/S (log2)” value is -0.561. Also, the melting temperature in data set [2] (cell cycle stage: G1/S) was found to be 47.9 °C; in data set [2] (cell cycle stage: mitosis), 49.6 °C. In addition, in data set [3], the “solubility change mitosis (log2)” value was -0.0174. Further, the thermal stability score in data set [4] (setting [5]) is 0.89; in data set [4] (cell cycle stage: mitosis), 1.14.
